The results in this text go back to patent US20030163841A1 (YALE UNIVERSITY, published 2003).

Data set [1] deals with the molecule itself. The data set can be described thus: yeast two-hybrid, LacZ reporter. The text has this: (C) Delimitation of Cop1 self-association domain utilizing the yeast two-hybrid system. For baits (Bait), Cop1 domain fragments were fused with the LexA DNA binding domain (LexA). For preys (Prey), the COP1 domain fragments were fused with the synthetic transcription activation domain (AD). Numbers and names at the left indicate a pairwise combination of bait and prey constructs in each row. The graph at the right indicates the relative LacZ reporter activity in yeast cells corresponding to combinations of bait and prey constructs presented in each row. For each pairwise combination, at least 8 individual transformants were used to measure the LacZ activity. Error bars represent standard deviation. Combination 1 (LexA: N282) and 2 (N282:AD) serve as negative controls.
pKS-RING and pKS-Coil are digested with EcoRI and XhoI, and rest of the COP1 domain cassettes in the pKSm vectors were digested with EcoRI. Fragments were then ligated into pEG202 or pJG4-5 to generate COP1 domains fused to the LexA DNA binding protein or the synthetic activation domain, respectively (Golemis et al., 1995). Generation of pEG-N282, pJG-N282, pJG-COP1, and pJG-ΔRING was described elsewhere (McNellis et al., 1996; Ang et al., 1998). To generate pJG-GUS-ΔRΔC, pRTL-GUS-ΔRΔC was cleaved with NcoI and XbaI and then ligated into NcoI/XbaI digested pKS-COP1. […]

Data set [2] deals with the molecule itself. The data set can be described thus: chemical cross-linking (DSub or EGS) of in vitro translated protein, SDS-PAGE, fluorography. The method, then: Protein immunoblot analysis was performed exactly as described previously (McNellis et al., 1994a). pAR-COP1 , a FLAG-tagged COP1 that has an additional peptide […] at the N-terminus (Matsui et al., 1995), was in vitro transcribed and translated using TNT coupled reticulocyte lysate system (Promega) and radiolabelled with [³⁵S]methionine (Amersham). For chemical cross-linking, 2 μl of translation mix (with radiolabelled proteins) was diluted to 18 μl with a reaction buffer (100 mM potassium phosphate [pH 7.7]; 100 mM NaCl; 0.1 mM ZnSO₄; 10% glycerol; 0.1% NonidetP-40; 4 mM DTT) and cross-linked with 2 μl of freshly diluted Dsub or EGS in dimethyl sulfoxide. For a negative control, 2 μl of dimethyl sulfoxode was added to the reaction. After 20 min incubation at room temperature, the reaction was quenched by addition of 2 μl of 1 M glycine (for Dsub) or 200 mM lysine (for EGS) and 22 μl of 2× Laemmli SDS-PAGE buffer. Samples were boiled for 5 min, separated by 6% SDS-PAGE, and fluorographed after treatment with Amplify (Amersham).
To better understand the COP1 self-association, we performed a chemical cross-linking analysis of in-vitro translated COP1 protein in solution. A FLAG-COP1 epitope tagged protein was in-vitro translated and then cross-linked with either dimethylsuberimidate (DSub) or ethylene glycobis (succinimidylsuccinate) (EGS). […]

Data set [3] deals with the molecule itself. In words: gel filtration (Superdex-200) of seedling extracts, immunoblot of fractions. As to the method: For gel filtration chromatography, 8-day-old light- or dark grown seedlings were homogenized with 2× gel filtration buffer containing 50 mM Tris-HCl (pH 7.5), 440 mM NaCl, 2 mM MgCl₂, 2 μM ZnSO₄, 0.5 mM PMSF and centrifuged for 5 min at 4° C. Total soluble protein was fractionated through a 25 ml Superdex-200 FPLC column (Pharmacia) with 1× gel filtration buffer at a flow rate of […]. All procedures were carried out at 4° C. and, for dark samples, under dim green safe light. Consecutive fractions of 0.5 ml each were collected after the void volume (7.5 ml), concentrated, and subjected to 10% SDS-PAGE followed by a protein immunoblot analysis. The molecular weight standards for size estimation of the native COP1 protein were as follows: blue dextran (void); thyroglobulin (669 kDa); ferritin (440 kDa); catalase (232 kDa); aldolase (158 kDa); BSA (67 kDa); ovalbumin (43 kDa); and ribonuclease A (13.7 kDa) (Sigma).
To confirm the presence of COP1 dimers in vivo, a gel-filtration analysis was performed using protein extracts from light- or dark-grown Arabidopsis wild-type seedlings. […] However, the COP1 peak was very broad and contained a broad shoulder toward the larger molecular size fractions (FIG. 1B). Therefore it is possible that a portion of COP1 may present as homo-oligomers or in heterogeneous associations with other molecules in vivo. […]
On the technique in general: In gel filtration, larger molecules generally elute earlier.

B1: Coil domain of COP1 (pKS-Coil cassette) (other)
chain: MDKLLKKTSARHVSKTASPLDQFREALQRGCDVSIKEVDNLLTLLAERKRKMEQEEAERNMQILLDFLHCLRKQKVDELNEVQTDLQYIKEDINAVERHRIDLYRARD
notes: The cassette used in yeast starts at aa104 (L104M); Fused to LexA or AD in yeast; also called coiled-coil domain
Consider B1, for which the binding result in data set [1] is listed as “binds”.

B2: FLAG-COP1 epitope tagged protein (pAR-COP1), in vitro translated and [35S]methionine labelled (other, Arabidopsis)
chain: DDADTKDDDDKMEEISTDPVVPAVKPDPRTSSVGEGANRHENDDGGSGGSEIGAPDLDKDLLCPICMQIIKDAFLTACGHSFCYMCIITHLRNKSDCPCCSQHLTNNQLYPNFLLDKLLKKTSARHVSKTASPLDQFREALQRGCDVSIKEVDNLLTLLAERKRKMEQEEAERNMQILLDFLHCLRKQKVDELNEVQTDLQYIKEDINAVERHRIDLYRARDRYSVKLRMLGDDPSTRNAWPHEKNQIGFNSNSLSIRGGNFVGNYQNKKVEGKAQGSSHGLPKKDALSGSDSQSLNQSTVSMARKKRIHAQFNDLQECYLQKRRQLADQPNSKQENDKSVVRREGYSNGLADFQSVLTTFTRYSRLRVIAEIRHGDIFHSANIVSSIEFDRDDELFATAGVSRCIKVFDFSSVVNEPADMQCPIVEMSTRSKLSCLSWNKHEKNHIASSDYEGIVTVWDVTTRQSLMEYEEHEKRAWSVDFSRTEPSMLVSGSDDCKVKVWCTRQEASVINIDMKANICCVKYNPGSSNYIAVGSADHHIHYYDLRNISQPLHVFSGHKKAVSYVKFLSNNELASASTDSTLRLWDVKDNLPVRTFRGHTNEKNFVGLTVNSEYLACGSETNEVYVYHKEITRPVTSHRFGSPDMDDAEEEAGSYFISAVCWKSDSPTMLTANSQGTIKVLVLAA
notes: range 1-675; Monomer 78 kDa, cross-linked product about 160 kDa; A second, lower band may start at an internal methionine of COP1; also called FLAG-tagged COP1
As to B2, the binding result in data set [2] is given as “binds”.

B3: endogenous Arabidopsis COP1 protein (extracts of wild-type seedlings) (other, UniProt P43254 1-675, looked up)
chain: MEEISTDPVVPAVKPDPRTSSVGEGANRHENDDGGSGGSEIGAPDLDKDLLCPICMQIIKDAFLTACGHSFCYMCIITHLRNKSDCPCCSQHLTNNQLYPNFLLDKLLKKTSARHVSKTASPLDQFREALQRGCDVSIKEVDNLLTLLAERKRKMEQEEAERNMQILLDFLHCLRKQKVDELNEVQTDLQYIKEDINAVERHRIDLYRARDRYSVKLRMLGDDPSTRNAWPHEKNQIGFNSNSLSIRGGNFVGNYQNKKVEGKAQGSSHGLPKKDALSGSDSQSLNQSTVSMARKKRIHAQFNDLQECYLQKRRQLADQPNSKQENDKSVVRREGYSNGLADFQSVLTTFTRYSRLRVIAEIRHGDIFHSANIVSSIEFDRDDELFATAGVSRCIKVFDFSSVVNEPADMQCPIVEMSTRSKLSCLSWNKHEKNHIASSDYEGIVTVWDVTTRQSLMEYEEHEKRAWSVDFSRTEPSMLVSGSDDCKVKVWCTRQEASVINIDMKANICCVKYNPGSSNYIAVGSADHHIHYYDLRNISQPLHVFSGHKKAVSYVKFLSNNELASASTDSTLRLWDVKDNLPVRTFRGHTNEKNFVGLTVNSEYLACGSETNEVYVYHKEITRPVTSHRFGSPDMDDAEEEAGSYFISAVCWKSDSPTMLTANSQGTIKVLVLAA
notes: range 1-675; Gel filtration peak at about 160 kDa is read as a dimer; The peak is broad, so oligomers, other partners and some monomer are not excluded; also called native COP1 protein
As for B3, the binding result in data set [3] is reported as “binds”.
